The chains are these.
T1: Halo-Kar3 (full-length Kar3 fused to a HaloTag) (S. cerevisiae (S288c), UniProt P17119 1-729, HaloTag TMR ligand (tetramethylrhodamine) or HaloTag Alexa488 ligand covalently bound to the HaloTag)
T1 construct: methods and legends say amino-terminal; also called Kar3-Halo; Kar3-HALO; not shown: HaloTag, N-terminal, kept
T1 sequence (looked up): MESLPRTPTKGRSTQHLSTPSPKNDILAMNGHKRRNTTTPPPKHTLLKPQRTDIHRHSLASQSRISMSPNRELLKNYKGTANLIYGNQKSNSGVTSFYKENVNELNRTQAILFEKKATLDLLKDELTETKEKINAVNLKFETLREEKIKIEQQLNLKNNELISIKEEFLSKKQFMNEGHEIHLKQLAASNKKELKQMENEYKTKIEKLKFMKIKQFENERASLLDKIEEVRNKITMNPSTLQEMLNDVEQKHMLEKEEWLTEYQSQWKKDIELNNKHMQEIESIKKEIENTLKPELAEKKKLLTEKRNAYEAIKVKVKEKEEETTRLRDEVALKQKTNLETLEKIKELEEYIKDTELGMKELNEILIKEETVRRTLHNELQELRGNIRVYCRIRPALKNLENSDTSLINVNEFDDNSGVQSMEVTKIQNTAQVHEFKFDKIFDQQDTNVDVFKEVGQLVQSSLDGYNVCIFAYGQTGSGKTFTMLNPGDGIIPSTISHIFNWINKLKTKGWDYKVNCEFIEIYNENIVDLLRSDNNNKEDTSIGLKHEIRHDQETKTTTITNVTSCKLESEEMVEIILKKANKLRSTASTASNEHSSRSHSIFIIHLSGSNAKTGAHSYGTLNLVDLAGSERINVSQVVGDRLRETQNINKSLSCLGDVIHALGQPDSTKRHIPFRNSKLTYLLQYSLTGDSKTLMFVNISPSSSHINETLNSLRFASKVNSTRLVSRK

B1: GST-Bim1^185–344 (domain or fragment, budding yeast, UniProt P40013 185-344, looked up)
chain: IQAELTKSQETIGSLNEEIEQYKGTVSTLEIEREFYFNKLRDIEILVHTTQDLINEGVYKFNDETITGHGNGNGGALLRFVKKVESILYATAEGFEMNDGEDELNDKNLGEHGTVPNQGGYANSNGEVNGNEGSNHDVIMQNDEGEVGVSNNLIIDEETF
notes: also called C-terminal EB homology domain of Bim1; source: recombinant; expressed and purified as described previously (Zimniak et al., 2009)
B2: GST-Bim1^FL (natural protein, budding yeast, UniProt P40013 1-344, looked up)
chain: MSAGIGESRTELLTWLNGLLNLNYKKIEECGTGAAYCQIMDSIYGDLPMNRVKFNATAEYEFQTNYKILQSCFSRHGIEKTVYVDKLIRCKFQDNLEFLQWLKKHWIRHKDESVYDPDARRKYRPIITNNSATKPRTVSNPTTAKRSSSTGTGSAMSGGLATRHSSLGINGSRKTSVTQGQLVAIQAELTKSQETIGSLNEEIEQYKGTVSTLEIEREFYFNKLRDIEILVHTTQDLINEGVYKFNDETITGHGNGNGGALLRFVKKVESILYATAEGFEMNDGEDELNDKNLGEHGTVPNQGGYANSNGEVNGNEGSNHDVIMQNDEGEVGVSNNLIIDEETF
notes: Bim1, the EB1 homologue of budding yeast, full length; also called full-length Bim1; source: recombinant; expressed and purified as described previously (Zimniak et al., 2009)
B3: Bim1 (as used in analytical size exclusion chromatography) (natural protein, budding yeast, UniProt P40013 1-344, looked up)
chain: B2 chain
notes: Bim1, the EB1 homologue of budding yeast; source: recombinant; expressed and purified as described previously (Zimniak et al., 2009)
B4: Cik1-1xFLAG (full-length Cik1, aa 1–594) (natural protein, S. cerevisiae (S288c), UniProt Q01649 1-594, looked up)
chain: MNNSKIPKLSFHSDPNNVTRDFPKTKRQKVQKREMDMILTPNNNKLNILHSSGSGIRRCYTDDTSATYTKKLTFGGDPKIIERVKNNERKVRKDIDSLLNAISEIEKESVRIHARELPAITLELDAKVKACRELQNEIDGLSTEMDLKDNQCDLQRKNVELSSKNIVSMHAVKVQEFENDLEEELSNAKREWTYKLMEVENLKPDERLTDEMRQLKTEFEEVNRKLFILQNENENECKNYKKELDKKFEIFKKVKNDARIELDGEQERLSKVLKDLQDTHGELKENIKTCRDEFNDFEKRIGEAEVNFHSMELAVVPLKKKLASTSQALTQVQEEKKQVEGEANNWKKKYVNELEKVQQELYTRQNLATSIEEIKGYTRCFAYANERQMPDEFHINYVDRCICENSGEKRVQVFDRVVLEEIHKDHKRLYNECIPFLEKYISKLINCSIIVVSQQPTAPMKKTLLKQLIEQYGENYKMTLNILHLDGSIKHSDVGLDNPTEIRDLSQDEECMNILTLDTKLGKDEESHSMNIYIGSMSTVQLNRELDDAPSVLSHILTKTKQCFVFKINAGENIEKALALAGKLKRTITLPQLD
notes: source: if needed MonoS; not shown: 1xFLAG, C-terminal, kept
B5: Cik1–Kar3 heterodimer (full-length Cik1-1xFLAG with Halo-Kar3) (complex, S. cerevisiae (S288c))
chain 1: T1 sequence (looked up)
chain 2: B4 chain
modifications: HaloTag TMR ligand or HaloTag Alexa488 ligand covalently bound to the HaloTag (imaging experiments)
notes: also called Cik1–Kar3-Halo; Cik1–Halo–Kar3; source: if needed MonoS; not shown: HaloTag, N-terminal, kept

Assay [1] addresses B5. Put plainly: pull-down; 0.1–1 μM GST-tagged bait immobilised on glutathione sepharose; binding partner at a constant 0.5–1 μM; 25 mM Hepes pH 7.2, 250 mM NaCl, 1 mM MgCl2, 1 mM EGTA, 0.5 mM DTT, 0.05% NP-40; 1 hr at 4°C; SDS-PAGE, Coomassie. To be noted: both partners purified.
Assay [2] deals with B5. Put plainly: SEC; analytical size exclusion chromatography of Cik1–Kar3 and Bim1 individually or in combination. Conditions: both partners purified. For orientation: Size exclusion chromatography separates by hydrodynamic size, large species first.
Assay [3] concerns the target T1, Halo-Kar3 (full-length Kar3 fused to a …). Put plainly: co-IP; two subunits co-overexpressed in S. cerevisiae; FLAG-tagged subunit bound to M2 anti-FLAG affinity agarose (lysis buffer 300 mM NaCl, washes 150 mM NaCl), HaloTag labelled on the resin, eluted with 3xFLAG peptide; Coomassie SDS-PAGE and fluorescence of the Halo-Kar3 subunit. To be noted: partners not purified.

In assay [4] the target is T2, recombinant full-length Ndc80 complex (Ndc80p-6xHis/Nuf2p-EGFP and Spc24p/6xHis/Spc25p) (UniProt P40460 1-691; P33895 1-451; Q04477 1-213; P40014 1-221).
T2 construct: Ndc80p, budding yeast; Nuf2p, budding yeast; Spc24p, budding yeast; Spc25p, budding yeast; also called Ndc80-eGFP complex; Ndc80 kinetochore complex; source: recombinant; expression and purification as described previously (Lampert et al., 2013; Lampert et al., 2010); copies: + + +
T2 sequence (P40460 whole entry, chain 1 of 4): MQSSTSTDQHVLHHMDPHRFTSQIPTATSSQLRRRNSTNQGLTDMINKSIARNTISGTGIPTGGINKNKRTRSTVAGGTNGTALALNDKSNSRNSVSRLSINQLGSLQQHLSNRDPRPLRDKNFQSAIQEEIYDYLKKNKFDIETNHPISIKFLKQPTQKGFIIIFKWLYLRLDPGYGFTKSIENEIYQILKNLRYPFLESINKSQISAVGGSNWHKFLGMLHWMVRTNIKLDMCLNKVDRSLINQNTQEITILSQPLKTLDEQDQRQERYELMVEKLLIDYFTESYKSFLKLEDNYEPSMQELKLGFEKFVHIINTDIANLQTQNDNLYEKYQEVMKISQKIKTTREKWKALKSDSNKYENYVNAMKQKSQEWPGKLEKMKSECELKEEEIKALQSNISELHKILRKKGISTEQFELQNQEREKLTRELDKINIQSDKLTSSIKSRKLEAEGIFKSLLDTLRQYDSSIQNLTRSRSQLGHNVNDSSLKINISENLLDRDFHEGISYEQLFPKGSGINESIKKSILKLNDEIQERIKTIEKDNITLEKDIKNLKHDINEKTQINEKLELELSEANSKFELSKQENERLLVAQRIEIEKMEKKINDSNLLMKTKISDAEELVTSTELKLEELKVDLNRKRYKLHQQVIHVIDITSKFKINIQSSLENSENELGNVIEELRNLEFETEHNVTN
T2 sequence (P33895 whole entry, chain 2 of 4): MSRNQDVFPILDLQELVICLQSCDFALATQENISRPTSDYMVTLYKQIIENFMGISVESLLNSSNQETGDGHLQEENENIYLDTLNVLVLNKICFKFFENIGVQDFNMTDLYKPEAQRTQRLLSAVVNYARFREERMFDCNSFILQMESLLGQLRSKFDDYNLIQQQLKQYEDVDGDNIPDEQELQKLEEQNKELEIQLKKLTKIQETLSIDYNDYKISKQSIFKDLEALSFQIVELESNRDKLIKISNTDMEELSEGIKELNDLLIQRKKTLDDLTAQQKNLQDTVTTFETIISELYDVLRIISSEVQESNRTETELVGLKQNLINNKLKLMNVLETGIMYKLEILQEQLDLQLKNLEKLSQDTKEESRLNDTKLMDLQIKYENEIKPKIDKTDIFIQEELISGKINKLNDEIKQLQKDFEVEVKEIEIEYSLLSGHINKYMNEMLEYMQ
T2 sequence (Q04477 whole entry, chain 3 of 4): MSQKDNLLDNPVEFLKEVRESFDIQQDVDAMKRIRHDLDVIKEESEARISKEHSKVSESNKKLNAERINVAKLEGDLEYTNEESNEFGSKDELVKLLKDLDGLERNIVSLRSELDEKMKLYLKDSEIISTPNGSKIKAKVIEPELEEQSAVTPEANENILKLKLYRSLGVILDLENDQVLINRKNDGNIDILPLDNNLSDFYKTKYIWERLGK
T2 sequence (P40014 whole entry, chain 4 of 4): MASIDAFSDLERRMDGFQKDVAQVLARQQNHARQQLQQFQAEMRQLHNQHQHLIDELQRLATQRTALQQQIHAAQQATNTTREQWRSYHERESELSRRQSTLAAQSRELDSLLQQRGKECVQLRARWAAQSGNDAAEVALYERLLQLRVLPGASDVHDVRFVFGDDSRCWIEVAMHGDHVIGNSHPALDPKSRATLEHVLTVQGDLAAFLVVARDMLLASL
Put plainly: in vitro recruitment to microtubules (TIRF microscopy); bulk recruitment assay in the absence of nucleotide; TMR-labeled Kar3 motors and fluorescently labeled recombinant Ndc80 complex on surface-immobilised taxol-stabilized microtubules. Conditions: both partners purified.

Regarding B1, the binding result in assay [1] is “binds”. The same measure, in the same setting: under B2 stands “binds”. For B3, the binding result in assay [2] is reported as “binds”.

Take B4: in assay [3], the binding result is “binds”. As to B5, in assay [4], the binding result is “binds”.

Source of the values: article PMC4338441, “Non-catalytic motor domains enable processive movement and functional diversification of the kinesin-14 Kar3” (eLife, 2015).
